Data: US20230235080A1, “TROPHOBLAST CELL-SURFACE ANTIGEN-2 (TROP-2) ANTIBODIES” (Bionecure Therapeutics, Inc., priority 2020, published 2023)

Columns and labels:
[1] = target: T1, human Trop-2 on Trop-2 positive cancer cells (human, UniProt P09758 27-323); assay: flow cytometry on MDA-MB-468 cells, MFI at 4 °C against the antibody concentration (about 400 to 10000 ng/ml); Kd (µg/ml) printed beside the legend
T1 construct: Endogenous Trop-2 of human tumour cell lines
T1 sequence (looked up): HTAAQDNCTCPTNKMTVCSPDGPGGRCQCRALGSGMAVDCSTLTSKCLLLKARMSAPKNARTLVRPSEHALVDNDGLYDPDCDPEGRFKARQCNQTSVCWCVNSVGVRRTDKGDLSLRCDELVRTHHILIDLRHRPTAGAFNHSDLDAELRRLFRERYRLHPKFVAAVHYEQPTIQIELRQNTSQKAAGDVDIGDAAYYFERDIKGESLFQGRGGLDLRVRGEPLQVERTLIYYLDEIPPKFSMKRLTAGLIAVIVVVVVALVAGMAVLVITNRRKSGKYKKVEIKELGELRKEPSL
Description: Internalizationi and degradation of anti-Trop-2 antibodies was measured by flow cytometry. In this study, fluorescent-conjugated secondary antibodies were used to detect the primary antibodies left on after internalization.
Next, either hRS7, or A1X4, or A1,2X4 antibody was added to cells in FACS buffer at concentrations of 400, 1000, 3000, or 10000 ng/ml, respectively, and incubated for 30 minutes at 4° C. After incubation, the cells were washed three times with FACS buffer to removed unbound antibody. The cells were then incubated at 37° C. with 5% CO₂ for antibody internalization. After 2 hours, the cells were dissociated with Trypsin and stained with fluorescent-conjugated goat anti-human IgG secondary antibodies for 30 minutes on ice in dark before being analyzed using Beckman flow cytometry system. The fluorescent intensity and cell binding percentage at each time point were analyzed by Beckman flow cytometric software. The amount of anti-Trop-2 antibodies internalized into cells at each concentration was determined using the following formula: % internalization rate = 100 × (MFI₄°C- MFI₃₇°C) / MFI₄°C

[2] = target: T2, human Trop-2-ECD-6His fusion protein (human, UniProt P09758 27-274); assay: BLI (Octet), antibody at 8 ug/ml, human Trop-2ECD-6His at 3.125-50 nM
T2 construct: Expressed in a human 293 cell line; also called huTrop-2; human Trop-2 antigen
T2 sequence: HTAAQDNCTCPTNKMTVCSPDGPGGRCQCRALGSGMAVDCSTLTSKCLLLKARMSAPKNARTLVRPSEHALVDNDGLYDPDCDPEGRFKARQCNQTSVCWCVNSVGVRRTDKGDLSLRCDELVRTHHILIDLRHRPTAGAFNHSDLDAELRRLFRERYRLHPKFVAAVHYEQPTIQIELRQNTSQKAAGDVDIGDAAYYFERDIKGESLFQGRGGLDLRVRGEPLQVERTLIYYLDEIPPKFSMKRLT
Description: The binding affinity of the purified anti-Trop-2 IgGs to human Trop-2 protein were determined by Octet system based on Bio-Layer Interferometry (BLI) technique. BLI is a layer of molecules attached to the tip of an optic fiber which creates an interference pattern at the detector, any change in the number of molecules bound causes a measured shift in the pattern. Octet system enables real-time analysis for determination of affinity and kinetics from biomolecular interactions in 96-well microplates. […] A1X4 or A1,2X4 antibody was diluted and added to the assigned wells at a final concentration 8 µg/ml. The plate was put in the Octet system and assay was started. The data was analyzed using the Octet Data Acquisition Software (fortebio data analysis 10.0) to calculate an association rate constant Kon, a dissociation rate constant Koff, and a dissociation constant Kd (Kd = Koff/Kon).

mouse Trop-2-His = target: T3, mouse Trop-2-His (mouse, UniProt Q8BGV3 25-270); assay: ELISA on coated antigen, one antibody dilution (concentration not given), detected by GAH-HRP, OD450nm
T3 sequence (looked up): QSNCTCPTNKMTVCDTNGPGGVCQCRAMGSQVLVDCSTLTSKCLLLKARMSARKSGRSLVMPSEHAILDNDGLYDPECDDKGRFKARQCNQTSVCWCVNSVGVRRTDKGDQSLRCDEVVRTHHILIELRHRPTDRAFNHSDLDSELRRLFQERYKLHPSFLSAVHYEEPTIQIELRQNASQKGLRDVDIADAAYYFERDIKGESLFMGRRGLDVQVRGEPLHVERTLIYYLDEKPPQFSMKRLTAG
Description: (§1) The cross-reactivity of purified IgGs to the Trop-2 antigens from different species was tested by ELISA. In this experiment, a microtiter plate was coated overnight at 4° C. with 50 µL/well of 1 µg/mL human Trop-2ECD-6His, mouse Trop-2-His, cynomolgus Trop-2-His, human EPCAM-His, and a non-related protein. The plate was washed and blocked for 1 hr at 37° C., and then washed with wash buffer. Purified anti-Trop-2 antibodies appropriately diluted in PBS were added to wells and incubated for 1 hour at 37° C. After washing, bound antibodies were detected using HRP-conjugated goat-anti-human IgG antibody. Color development and absorbance at OD450 nm were read. A non-specific human IgG1 was included as a negative control, while hRS7 was used as a positive control.

human EPCAM-His = target: T4, human EPCAM-His (human, UniProt P16422 24-265); assay: as above
T4 construct: also called hEPCAM
T4 sequence (looked up): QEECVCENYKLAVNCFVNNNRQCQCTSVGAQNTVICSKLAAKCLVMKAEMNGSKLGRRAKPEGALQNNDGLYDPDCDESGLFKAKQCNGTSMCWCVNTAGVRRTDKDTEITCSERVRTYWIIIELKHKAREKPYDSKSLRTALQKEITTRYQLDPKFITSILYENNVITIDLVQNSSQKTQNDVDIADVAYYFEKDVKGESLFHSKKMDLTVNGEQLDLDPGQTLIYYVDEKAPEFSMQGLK
Description: as §1

- Kd [1]: 0.93 mg/L
- Kd [2]: 4.09 nM
- koff [2]: 0.000844 s⁻¹
- binding result (mouse Trop-2-His): no binding
- binding result (human EPCAM-His): no binding
B1: humanized IgG A1,2X4 (antibody, V domains shown)
VH: QVQLQESGPGLVKPSETLSLTCTVSGFSLTSYGVNWIRQPPGKGLEWIGVMWAGGSTNYNSALMSRLTISKDTSKNQFSLKLSSVTAADTAVYYCARDENWDGAWFAYWGQGTLVTVSS
VL: DIVMTQSPDSLAVSLGERATINCKSSQSLLNSGTRKNYLAWYQQKPGQPPKLLISWASSRESGVPDRFSGSGSGTDFTLTISSLQAEDVAVYYCKQSYNLFTFGGGTKVEIKR
notes: Full-length IgG expressed in 293 cells; also called IgG HuA(1,2)/Lu(X4)
